Assay: soluble on expression in E. coli; label from the status in PepcDB or PDB records

Row | Sequence | soluble on expression in E. coli
1 | MGSDKIHHHHHHMLFRASRSDMSNLTNCITNESVAVTADKKPVIGRIHSFESCGTVDGPGIRFITFFQGCLMRCLYCHNRDTWDTHGGKEITVEDLMKEVVTYRHFMNASGGGVTASGGEAILQAEFVRDWFRACKKEGIHTCLDTNGFVRRYDPVIDELLDVTDLVMLDLKQMNDEIHQNLVGVSNHRTLEFAQYLSKKNVKVWIRYVVVPGWSDDDDSAHRLGEFTRDMGNVEKIELLPYHELGKHKWVAMGEEYKLDGVKPPKKETMERVKGILEQYGHKVMY | not soluble
2 | SNAMKTLFLQYPACSTCQKAKKWLIENNIEYTNRLIVDDNPTVEELKAWIPLSGLPVKKFFNTSGVVYKELKLSSKLPTMTEEEQIALLATNGKLVKRPLVVTERFVLVGFKPEEWEKLK | soluble
3 | MAQSKILLYYKFTPIADPKAMMLWQRDMCELLGLKGRILISEHGINGTVGGDMDACKRYVRKMREYPGFRGTEFKWSDGGAEDFPKLSVKVRDEIVAFGAPGELKVDEKGVIGGGVHLKPEEVNKLVEERGDDVVFFDGRNAMEAQIGKFKNAVVPDVRTTHDFIRELESGKYDWMKDKPVVSYCTGGIRCEILSSLMKNRGFKEIYQIDGGIVRYGEKYGNDGLWEGSLYVFDRRMHMEFGNGVQDPGFIQLGHCVQCGAPTNKFEHCINEDECRELVLMCPDCYENPATRNCGREHCKEVAAEAAAAAAV | not soluble
4 | WNIHGKESCDVQLYIKRQSEHSILAGDPFELECPVKYCANRPHVTWCKLNGTTCVKLEDRQTSWKEEKNISFFILHFEPVLPNDNGSYRCSANFQSNLIESHSTTLYVTDVKHHHHHHHH | soluble
5 | MTSRDQGINSELSNRTIQFKEKIHNGIHTEYITDQKHSNNKDREKKYRDGDKINGPQAHSLDITNERRFADNRTMFTQHIEKQRNVNTLNQNDINNSANNANVRENELTYQFQRWGQNHTVRILESSEGIRLKPSDTLVSDRLHEAQHNDVTAQRWVLTEQDERQGQRHQPHEEQENEGKFENDQKDES | soluble
6 | MQPTETSQPAPSDQGRRLKDQLSESMSFSSQMKKEDDELSMKALSAFKAKEEEIEKKKMEIRERVQAQLGRVEDESKRLAMIREELEGFADPMRKEVTMVRKKIDSLDKELKPLGNTVQKKETEYKDALEAFNEKNKEKVELITKLQEGESEKFRFKKLEELSKNIDLTKP | not soluble
7 | MSLTIEDVAKLAGVSIATVSRVINGSGYVSEKTRYKVWKAIEELGYKPEISAKLLASKGKLFNIYVFASKRILSPLQNNGILGEFYGVIIRAIEENCGRLGMNVELKMLENFSESNGADGYIFIGGDLSEKTLKEIKSRKKPFVLVDHYIPGERVDCVISDGYDGAVYATNYLISKGFKRIVHVHGPLHPYGFKMRYDGYKDAMEKAGLMPRFYECDDTEEGTRKVIDIMLNSYGTPEAIFTSNDSIAFWVIKRLKEHNIKVPDDVSVIGFDDIVDAENFDPPLTTLRVFKYEMGCLACKRLHELLTGINPHPVRILVFTQFVKRKSTKEGHHHHHH | not soluble
8 | MGSDKIHHHHHHMSHQSTHPHHTWVQSHHPVHLETKSPPHKEPMFYYFAYGSCMCPVDLKRSLGENTHPYIIGPGVLKGYRLGFYLYLPSRKCGVLDIVKDPKASVKGVLYQLPLRLSEYLDQREGVSQNLYRHESVEIHSHSRVYQDVRTYVVVNKSEEEVAPNDWYFNVVLRGAVTCGLPEEYCWHLFNHMHKLQQRHQEQKFRRSA | not soluble
9 | VVGGTDADEGEWPWQVSLHALGQGHICGASLISPNWLVSAAHCYIDDRGFRYSDPTQWTAFLGLHDQSQRSAPGVQERRLKRIISHPFFNDFTFDYDIALLELEKPAEYSSMVRPISLPDASHVFPAGKAIWVTGWGHTQYGGTGALILQKGEIRVINQTTCENLLPQQITPRMMCVGFLSGGVDSCQGDSGGPLSSVEADGRIFQAGVVSWGDGCAQRNKPGVYTRLPLFRDWIKENTGV | soluble
10 | MGSDKIHHHHHHMPFITKISTQKKNTERFNIFLDDKYAFSVDADVLVKFELKKGKELDDLDIIEIQYGDEVKKGFNRALDFLSYRMRSTKEVEDHLKKKETSPPVIAEVIHRLNDYKYLNDQEFAAAYVSTHKKTNGKGPDVLFRELRAKGIDDDTIKEALSSFSFEDQTREAVKHVEKLLKKDKKLSTKELKQRAQLQLQRKGFSFDVISAAMDQIEYENDEDTEKEALRLHAEKAFRKYRYDGSYESAMKVKQFLFRKGFSLDLIEQLLQEEEY | not soluble
11 | VLTELVDLPGGSFRMGSTRFYPEEAPIHTVTVRAFAVERHPVTNAQFAEFVSATGYVTVAEQPLDPGLYPGVDAADLCPGAMVFCPTAGPVDLRDWRQWWDWVPGACWRHPFGRDSDIADRAGHPVVQVAYPDAVAYARWAGRRLPTEAEWEYAARGGTTATYAWGDQEKPGGMLMANTWQGRFPYRNDGALGWVGTSPVGRFPANGFGLLDMIGNVWEWTTTEFYPHHRIDPPSTACCAPVKLATAADPTISQTLKGGSHLCAPEYCHRYRPAARSPQSQDTATTHIGFRCVADPVSG | soluble
12 | MVHEEDFKEGYILGFIEAEGSFSVSIKFQRDVFGGVRLDPVFSITQKNREVLEAIKEHLGIGRIMEKAGQPNTYVYVVDNFNELVKLINFLNKYADFMIVKKRQFLMFREIANGLVNGEHLHINGLKRLVKLAYELTKESEKGYRKYDLNHVLSIIDKWDLGRNVSTSL | soluble
13 | MPRIAIPDDLTEILTVVEFPLPNAPEIKIEIERLLQATGNSLSGKVTDDLVRSCQGLSMERIRRVLAKAIATHGELQPEDVDLVLEEKRQTIRQTQILDFYPATEQISDIGGLDNLKDWLLRRGGSFSERARQYGLPHPRGLLLEHHHHHH | not soluble
14 | GGAFTWDTDFNISFNRNKLTKLELQKVYYDAKTADVVNDYVVRNEPGRALGGFYGYISDGVDPETGELMYRDLSGDGKISTSDRTYIGDPNPDFTYGLTNTFSWKGFNLSVFIQGSYGNDIFNASRIETEGMYDGKNQSTKVLNRWKIPGQITNVPKANFKLLNSTYFIEDGSYLRLKDVSLSYNFKGKLLQKWGITRLQPYFTATNLLTWTSYSGMDPEVNQWGNSGTVQGIDWGTYPHSRSYVFGINVEF | not soluble
15 | AELTALESLIEMGFPRGRAEKALALTGNQGIEAAMDWLMEHEDDPDVDEPL | soluble
16 | MSQSEEQNKDIPSSSNFGNPANNGVNVPDAPARRLFDNTSDESDVSLDNDDKTGAETDGSSSSRGCLKSERSRKDHASTSSTRTVRAPQQVSWSFGAKPATPHSQPPAGLKKVPAYSATSSSSQAGPSASTSTARKSSLVGGRGSASSSGHTSPSPSESPARNAGCSSSGESNPDRSLTTPPLAPALKHSAKDGHYRGQRSMSLGGPAHEMLMSQLGGRQGNTVDCSPGEGDKVCLLVDQTRFLVSQRLLTSKPDTMLGRMFSMRASCGDLGADLVSPNERDEFEVADGMTSSCFRAILDYYQSGTMRCPSSVSVSELREACDYLLVPFNAQTVKCQNLHALLHELSNEGAREQFSQFLEEIILPQLVASTEHGERECHLVVLLDDDVVDWDDEYPPQMGEETTHVVYSTHLYKFFKYAENRDCAKQVLKERGLKKIRLGMEGYPTHKEKIKKRFNKAEVIYNYVQRPFVHCSWEKEEARSRHVDFACPIVKSKSNPSLAAAASDPLPQPAPLQQQHRVAVFGEAAPLAAHNRVDDQHFVQPLNQLMQQQAQLPQNNAMLGVNVQQQQHNHPLHSPPVNFQRNDREEE | soluble
17 | MSLTTITLRSAELFDVYLTFRQPMQTAISILSKRRTTILRLTDQEGRIGYGEGVAFETPWYTAETQDSLRALSPLLYRLLAAAPLSSPAAVAARFQPIKGNQMAKAMFDGAVHELFAQAEQTSLAAYLGGDENRSIPCGKALGRSSAEQTVEAVGQALNDGFERIKLKLAPTDTAVLEQVRKSFPGAPLMFDANGSFQVADLPLLQEWDTFSMLMMEQPFPADDWLSHQHAASLLKTPLCLDESIQTTQDALLMRTLQAGQIINIKPARLGGLTAALDVRSISPSYWLGGMFESGIGRRQTLAFATLPGLAYPIDMSGTDQYFIEDLLEQDYIVENGSIRYAEHSVSQERLERLAVSTKKLEGHHHHHH | soluble
18 | MTAIEQTEAVRPRGTRLPRRARRNQLLGAAQEVFVAQGYHAAAMDDIAERAGVSKPVLYQHFPGKLDLYLALLDQHCEALIQSVRSALASTSDNKQRVRATMDAYFAYVEDDGGAFRLVFESDLTNEPAVRERVDKVTNECAEAICDVIAEDTGLSRAESMLLASGLGGLAQVVARSWLHSDRSVPRDQAVQLLTSLAWRGIAGFPLHGIEQH | not soluble
19 | MSSEKEYVEMLDRLYSKLPEKGRKEGTQSLPNMIILNIGNTTIIRNFAEYCDRIRREDKICMKYLLKELAAPGNVDDKGELVIQGKFSSQVINTLMERFLKAYVECSTCKSLDTILKKEKKSWYIVCLACGAQTPVKPL | soluble
20 | MSARSLYQDTAVAALRDDLALALCAAAHHGLGEGVCNHFSVALPGQAGAFLLNPRGLMWSEVRAEDIVLVDAAGNKLAGRHEVEPTAMFIHAAIHQVAGKACVLHTHMPYATALTLTEARMLDTTLSQNAMRFHGRVAADRRYNGLALDAAEGERIARAMDGADIAFLGNHGVVVCGERIDYAFDDLYYLERACCAQVLAESSGRPLVPLDAALAASVAGQARSERLQSTLFFEALRRALGLEHHHHHH | not soluble
21 | MTTLSMENFAQLFEESLTLHDMRVGEVITAEVVAVDSNFVTVNAGLKSESLIPAEEFKNDQGVVEVAIGDFVTVAIDALENGFGETKLSREKAKRMAAWVELEEALEAGTILSGMISGKVKGGLTVMVNGIRAFLPGSLVDVRPVKDTTPYENKQIEFKVIKLDRKRNNVVVSRRSVLEETLGEERKALLETLKEGAVIKGIVKNITDYGAFVDLGGIDGLLHITDLAWRRVKHPSEVLAVGDEVEAKVLKFDQEKNRVSLGLKQLGEDPWVGLSRRYPSGTRLFGKVTNLTDYGAFVEIEQGIEGLVHVSEMDWTNKNVHPSKVVQVGDEVEVMILEIDEDRRRISLGMKQCLANPWNEFADNFHKGDKLKGAIKSITDFGVFVGLPGGIDGLVHLSDLSWNEAGEEAVRKFKKGDEVEAVVLSIDVEKERISLGIKQLEGDPFNNFVAMNDKGALVKGTVKSVDAKGAVIALDADVEGYLRASELSRDRVEDARSVLKDGDAVEAVIVAVDRKSRNISLSIKAKDAQEDNAALKSLAVDSASAGTTNLGALLKAKLSGSNE | soluble
22 | TNCVTISQREILKGVEGVTWFEVLLEKTSCITIAAQNRPSIDLWLDDVKQSSVMASKEFCMKVEVSETQIAARCPTQGDATLPMEGKDDYVCKKTFSDRGWGNGCALFGKGSIVGCAKVACNTANVMKTHIYEQQAVQYVVGIEVHRGEVIKANVSDKVIKASFSAEAEKHTVEIPDYGSLDFTCRVVASADLSNIRLLEVDGHYFNVHEDWLDDLPLPWRINAGPWRGMDKLVNFREPYAVKMVIMGYGDQRPAVLGALDKAEEIKKVGDNYHLNGGHVSCKVSVAKLKLKGMTYVVCGGKFAWAKKPIATNHDTVAMEVTYTGNDTPCRVTVKNVKENSDDQGTLITTNPFVESNGATIFLELEPVYGLSTIKVGDITYQWNQQGSVIGKALEHHHHHH | not soluble
23 | MGSDKIHHHHHHMTWTDLKSSLAAEGYVASDDLAVALQLALSLGRPLLLEGAAGVGKTEIARTLSAVRDTRLIRLQCYEGLDAAQAIYEWNYQRQLLTIRAASEAGETGKAVEDRIFSRDFLLERPLLAAITQEMAPVLLIDEIDRADEEFEAYLLEILSDFQVSIPELGTITAVTRPMVVLTSNGTRDLSDALRRRCLYTYVEYPDRTAELAILKARCPDVEARLAEQIIGFVQRLREEELEKTPGVAEMLDFAAALMGLGIADLTDNPAVLQSTLTTLLKTQSDQAQITREVAGRIAVKAA | not soluble

Reference: the DeepSol protein solubility set
